Patent US20140120095A1 (Boehringer Ingelheim, published 2014)
Values belong to the binder of their own block, whether it stands above or below them.

What was measured:
[1] = biological target: T1, human DLL4 overexpressed on cells (human, UniProt Q9NR61 27-685); experiment: cell-based or functional assay
[2] = biological target: T1, human DLL4 overexpressed on cells; experiment: competitive FMAT, hNotch1-Fc on CHO-hDLL4
recombinant human DLL4 [3] = biological target: T2, recombinant human DLL4 (human, UniProt Q9NR61 25-522); experiment: SPR Biacore T100, hDLL4 on chip, VHH/Fab injected
T2 construct: also called rhDLL4; hDLL4
Experimental: Kinetic analysis to determine the affinity of the DII4-VHH interaction is performed by Surface Plasmon Resonance (SPR) on a Biacore T100 instrument. […] Purified VHHs or Fab fragment are injected for 2 minutes at different concentrations (between 10 and 300 nM) and allowed to dissociate for 20 min at a flow rate of 45 μl/min. Between sample injections, the surfaces are regenerated with 10 mM glycine pH1.5 and 100 mM HCl. HBS-N (Hepes buffer pH7.4) is used as running buffer. If possible, data are evaluated by fitting a 1:1 interaction model (Langmuir binding) onto the binding curves. The affinity constant KD is calculated from resulting association and dissociation rate constants (kₐ) and […].

recombinant human DLL4 [4] = biological target: T2, recombinant human DLL4; experiment: competition ELISA, biot-hDLL4 to coated hNotch1-Fc
Text: Residual binding of biotinylated human DII4 is detected using horseradish peroxidase (HRP) conjugated extravidin (Sigma, St. Louis, Mo., USA) (FIG. 3 A-C). Human DII4 is biotinylated as described above.

human Jagged-1 = biological target: T3, human Jagged-1 (human, UniProt P78504 34-1067, limits assumed); experiment: binding ELISA on coated recombinant human Jagged-1, OD 405 nm
T3 construct: also called hJagged-1; hJAG1
Procedure, shortened: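 Plates coated overnight at 4° C with 1 μg/mL ligand, blocked with 1% casein in PBS. VHH dilution series applied; bound VHH detected via mouse anti-myc then anti-mouse-AP conjugate.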

[5] = biological target: T1, human DLL4 overexpressed on cells; experiment: FMAT, labelled hNotch1-Fc on CHO-hDLL4, periplasmic extract
Text: (§1) All calculations are based on the FL1_total signal which comprises the average of the fluorescence per well times the number of counts per well.

[6] = biological target: T4, mouse DLL4 overexpressed on cells (mouse, UniProt Q9JI71 27-686); experiment: FMAT, labelled hNotch1-Fc on CHO-mDLL4, periplasmic extract
T4 construct: whole, on cells; also called CHO-mDLL4; CHO-mDII4
T4 sequence (Q9JI71 27-686): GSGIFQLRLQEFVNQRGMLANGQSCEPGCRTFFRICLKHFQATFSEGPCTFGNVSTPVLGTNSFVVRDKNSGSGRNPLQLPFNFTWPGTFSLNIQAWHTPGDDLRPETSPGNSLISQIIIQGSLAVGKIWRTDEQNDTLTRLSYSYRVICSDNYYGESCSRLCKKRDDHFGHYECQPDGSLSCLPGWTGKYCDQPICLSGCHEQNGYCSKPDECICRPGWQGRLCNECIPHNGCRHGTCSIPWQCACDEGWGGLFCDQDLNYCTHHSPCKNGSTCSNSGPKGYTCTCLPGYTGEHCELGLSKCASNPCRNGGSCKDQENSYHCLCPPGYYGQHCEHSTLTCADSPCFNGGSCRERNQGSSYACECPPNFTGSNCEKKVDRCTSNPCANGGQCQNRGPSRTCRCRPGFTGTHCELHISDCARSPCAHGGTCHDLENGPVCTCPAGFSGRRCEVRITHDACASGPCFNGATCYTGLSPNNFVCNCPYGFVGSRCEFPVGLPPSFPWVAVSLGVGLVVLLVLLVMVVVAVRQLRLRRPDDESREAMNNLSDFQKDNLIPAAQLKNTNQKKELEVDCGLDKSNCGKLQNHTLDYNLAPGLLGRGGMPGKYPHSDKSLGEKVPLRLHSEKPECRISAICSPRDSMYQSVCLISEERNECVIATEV
Text: as §1

recombinant mouse DLL4 = biological target: T5, recombinant mouse DLL4 (mouse, UniProt Q9JI71 27-532); experiment: binding ELISA, coated rmDLL4
T5 construct: extracellular domain; also called rmDLL4; mDLL4
T5 sequence (Q9JI71 27-532): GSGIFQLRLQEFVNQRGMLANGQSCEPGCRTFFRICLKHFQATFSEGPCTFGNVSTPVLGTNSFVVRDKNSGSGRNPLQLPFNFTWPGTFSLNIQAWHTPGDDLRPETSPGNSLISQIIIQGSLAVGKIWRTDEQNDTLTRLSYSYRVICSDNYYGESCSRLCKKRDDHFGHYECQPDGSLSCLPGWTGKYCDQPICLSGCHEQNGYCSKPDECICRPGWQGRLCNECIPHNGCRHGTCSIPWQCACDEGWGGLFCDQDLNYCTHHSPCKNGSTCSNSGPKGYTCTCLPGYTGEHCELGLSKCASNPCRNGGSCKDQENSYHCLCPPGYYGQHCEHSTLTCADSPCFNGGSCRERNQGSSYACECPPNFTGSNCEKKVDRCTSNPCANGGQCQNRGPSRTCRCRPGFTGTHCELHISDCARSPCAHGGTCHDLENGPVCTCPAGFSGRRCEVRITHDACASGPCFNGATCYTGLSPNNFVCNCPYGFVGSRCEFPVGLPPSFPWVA
Experimental: (§2) In order to determine cross-reactivity to mouse DII4 a binding ELISA is performed. […] Wells are blocked with a casein solution (1% in PBS). VHHs are applied as dilution series and binding is detected using a mouse anti-myc (Roche) and an anti-mouse-AP conjugate (Sigma, St Louis, Mo., USA) (FIG. 7 A-H). As reference, binding to human DII4 is measured.

recombinant human DLL4 [7] = biological target: T2, recombinant human DLL4; experiment: binding ELISA, coated rhDLL4
Experimental: as §2

[8] = biological target: T4, mouse DLL4 overexpressed on cells; experiment: competitive FMAT, hNotch1-Fc on CHO-mDLL4
[9] = biological target: T6, cynomolgus DLL4 overexpressed on cells (cynomolgus, UniProt Q9NR61 27-685 (human entry)); experiment: FACS titration on HEK293-cDLL4 cells, MCF
T6 construct: also called cyno DII4; cDLL4
T6 chain: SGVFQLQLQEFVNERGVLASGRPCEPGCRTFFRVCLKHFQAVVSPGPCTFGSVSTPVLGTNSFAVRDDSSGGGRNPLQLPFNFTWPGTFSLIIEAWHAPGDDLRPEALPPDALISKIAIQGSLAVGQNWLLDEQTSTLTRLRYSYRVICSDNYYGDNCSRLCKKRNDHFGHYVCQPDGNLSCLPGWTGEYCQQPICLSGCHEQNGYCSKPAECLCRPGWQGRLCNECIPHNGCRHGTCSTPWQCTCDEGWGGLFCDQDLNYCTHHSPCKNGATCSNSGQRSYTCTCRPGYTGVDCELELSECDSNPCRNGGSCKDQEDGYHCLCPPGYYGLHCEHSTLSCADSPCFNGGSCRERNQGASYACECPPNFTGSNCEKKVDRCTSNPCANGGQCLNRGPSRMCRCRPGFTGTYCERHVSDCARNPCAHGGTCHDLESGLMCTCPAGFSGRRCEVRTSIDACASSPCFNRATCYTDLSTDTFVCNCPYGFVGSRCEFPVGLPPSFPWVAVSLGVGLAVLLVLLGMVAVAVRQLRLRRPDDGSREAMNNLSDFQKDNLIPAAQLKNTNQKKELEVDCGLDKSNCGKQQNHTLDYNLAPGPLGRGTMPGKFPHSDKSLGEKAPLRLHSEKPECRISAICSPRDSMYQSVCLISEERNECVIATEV
Experimental: (§3) In order to determine the cynomologus cross-reactivity of the VHHs, a FACS binding experiment is performed. Cynomolgus DII4 expressing HEK293 cells (transient or stable transfection) are used for a titration binding experiment of the VHHs. After a 30 minutes incubation on ice, all samples are washed and detection is performed by applying anti-c-myc˜Alexa647 (Santa Cruz Biotechnology, Santa Cruz, Calif., USA). Human and mouse DII4 overexpressing HEK293 cells are taken as reference. The mean MCF value is determined on the FACS Array and used for calculation of the EC₅₀ value (see FIG. 9 A-E).

[10] = biological target: T4, mouse DLL4 overexpressed on cells; experiment: FACS titration on HEK293-mDLL4 cells, MCF
Experimental: as §3

recombinant human DLL4 [11] = biological target: T2, recombinant human DLL4; experiment: competition AlphaScreen, biot-hDLL4/hNotch1-Fc
Experimental: In brief, 1 nM biotinylated human DII4 is captured on streptavidin-coated donor beads (20 μg/mL), while 0.4 nM of the receptor human Notch1 (as a Fc fusion protein) is captured on anti-human Fc VHH-coated acceptor beads (20 μg/mL). Both loaded beads are incubated together with a dilution range of the competing VHH (FIG. 4 A-E).

[12] = biological target: T7, recombinant human VEGF165 (human, UniProt P15692-4 27-191, biotinylated in the competition assays); experiment: AlphaScreen, hVEGF165/hVEGFR2-Fc competition
T7 construct: Bought protein; also called hVEGF165; rhVEGF165
T7 sequence (P15692 other isoform, or with tags, fused parts or gaps): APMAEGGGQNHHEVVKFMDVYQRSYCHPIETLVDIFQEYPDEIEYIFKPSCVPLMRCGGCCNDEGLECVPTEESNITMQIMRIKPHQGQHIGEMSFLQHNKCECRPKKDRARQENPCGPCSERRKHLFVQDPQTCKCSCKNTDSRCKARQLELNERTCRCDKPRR
Experimental: (§4) Finally, streptavidin donor beads (20 μg/ml) are added and after 1 hour of incubation in the dark, fluorescence is measured on the Envision microplate reader.

[13] = biological target: T7, recombinant human VEGF165; experiment: ELISA, hVEGF165/hVEGFR2-Fc competition; design: % inhibition: concentration or dose not given beside the values
[14] = biological target: T7, recombinant human VEGF165; experiment: AlphaScreen, hVEGF165/hVEGFR1-Fc competition; design: % inhibition: concentration or dose not given beside the values
Experimental: as §4

[15] = biological target: T7, recombinant human VEGF165; experiment: SPR Biacore, immobilised hVEGF165, two state reaction model
Experimental: Samples are injected for 2 min and allowed to dissociate up to 20 min at a flow rate of 45 μl/min. In between sample injections, the chip surface is regenerated with 100 mM HCl. HBS-EP+(Hepes buffer pH7.4+EDTA) is used as running buffer. Binding curves are fitted using a Two State Reaction model by Biacore T100 Evaluation Software v2.0.1.
^{(a)}KD = kd1/kₐ₁ * (kd2/(kd2 + kₐ₂)) ^{(b)}Curves are fitted using a Two State Reaction model by Biacore T100 Evaluation Software v2.0.1

[16] = biological target: T7, recombinant human VEGF165; experiment: AlphaScreen, hVEGF165/hVEGFR2-Fc competition; design: % inhibition: concentration or dose not given beside the values
Experimental: as §4

[17] = biological target: T7, recombinant human VEGF165; experiment: binding ELISA, coated rhVEGF165
[18] = biological target: VEGF (used to stimulate HUVEC cells) (UniProt P15692-4 27-191, limits assumed); experiment: cell-based or functional assay
Sequence of VEGF (used to stimulate HUVEC cells) (P15692 other isoform, or with tags, fused parts or gaps limits assumed): as the sequence (P15692 other isoform, or with tags, fused parts or gaps) above

VEGF = VEGF (UniProt P15692-4 27-191, limits assumed); experiment: cell-based or functional assay
Sequence of VEGF (P15692 other isoform, or with tags, fused parts or gaps limits assumed): as the sequence (P15692 other isoform, or with tags, fused parts or gaps) above

[19] = biological target: DII4-His (C-terminal His-tagged human DII4, amino acid 27-524) (human, UniProt Q9NR61 25-522); experiment: cell-based or functional assay

B3: VEGFBII023 (VHH, not shown: small tags and cut ends)
chain: EVQLVESGGGLVQTGDSLRLSCEVSGRTFSSYSMGWFRQAQGKEREFVVAISKGGYKYDSVSLEGRFTISKDNAKNTVYLQINSLKPEDTAVYYCASSRAYGSSRLRLADTYEYWGQGTQVTVSSGGGGSGGGGSGGGGSGGGGSGGGGSGGGGSGGGGSGGGGSEVQLVESGGGLVQAGGSLRLSCAASGRTFSNYAMGWFRQAPGKERVLVADISSSGINTYVADAVKGRFTISRDNAKNTVYLQMNSLKPEDTAVYYCAASAWWYSQMARDNYRYWGQGTQVTVSS
notes: Bivalent anti-VEGF VHH; also called VEGFBII23B04-40GS-10E07
IC50 [12]: 0.038 nM | % inhibition [13]: 100% | IC50 [13]: 0.213 nM | % inhibition [14]: 87% | IC50 [14]: 0.048 nM | Kd [15]: 0.69 nM | ka1 [15]: 300000 M⁻¹ s⁻¹ | ka2 [15]: 0.024 s⁻¹ | kd1 [15]: 0.018 s⁻¹ | kd2 [15]: 0.00027 s⁻¹ | % inhibition [16]: 100% | IC50 [16]: 0.046 nM | EC50 [17]: 0.221 nM | % inhibition, VEGF HUVEC Erk phosphorylation assay [18]: 100% | IC50, VEGF HUVEC Erk phosphorylation assay [18]: 0.25 nM

B4: VEGFDLLBII014 (bispecific antibody)
chain: EVQLVESGGGLVQTGDSLRLSCEVSGRTFSSYSMGWFRQAQGKEREFVVAISKGGYKYDSVSLEGRFTISKDNAKNTVYLQINSLKPEDTAVYYCASSRAYGSSRLRLADTYEYWGQGTQVTVSSGGGGSGGGSEVQLVESGGGLVQPGGSLRLSCVASGIRFMSMAWYRQAPGKHRELVARISSGGTTAYVDSVKGRFTISRDNSKNTVYLQMNSLKAEDTAVYYCNTFSSRPNPWGAGTQVTVSSGGGGSGGGGSGGGGCGGGGSGGGGSGGGGSGGGGSEVQLVESGGGLVQAGGSLRLSCAASGRTFSSYAMAWYRQAPGKEREYVAAIRWSGGTAYYADSVQGRFTISRDNAKNTVYLQMNSLKPEDTAVYYCANRAPDTRLAPYEYDHWGQGTQVTVSS
modifications: PEGylated 35gs, cys15 linker (PEG on the Cys at position 15 of the 35 Gly-Ser linker; size of the PEG not stated)
% inhibition, VEGF HUVEC Erk phosphorylation assay, -HSA (VEGF): 101% | IC50 (nM), VEGF HUVEC Erk phosphorylation assay, -HSA (VEGF): 0.53 nM | IC50 (nM), DII4-mediated HUVEC proliferation assay, -HSA [19]: 0.53 nM

B5: VEGFDLLBII013 (bispecific antibody)
chain: EVQLVESGGGLVQTGDSLRLSCEVSGRTFSSYSMGWFRQAQGKEREFVVAISKGGYKYDSVSLEGRFTISKDNAKNTVYLQINSLKPEDTAVYYCASSRAYGSSRLRLADTYEYWGQGTQVTVSSGGGGSGGGGSGGGGCGGGGSGGGGSGGGGSGGGGSEVQLVESGGGLVQAGGSLRLSCAASGRTFSSYAMAWYRQAPGKEREYVAAIRWSGGTAYYADSVQGRFTISRDNAKNTVYLQMNSLKPEDTAVYYCANRAPDTRLAPYEYDHWGQGTQVTVSS
modifications: PEGylated 35gs, cys15 linker (PEG on the Cys at position 15 of the 35 Gly-Ser linker; size of the PEG not stated)
% inhibition, VEGF HUVEC Erk phosphorylation assay, -HSA (VEGF): 95% | IC50 (nM), VEGF HUVEC Erk phosphorylation assay, -HSA (VEGF): 0.89 nM | IC50 (nM), DII4-mediated HUVEC proliferation assay, -HSA [19]: 2.06 nM

Next, values leading:

IC50, DLL4/Notch1 reporter assay [1]: 5160 nM | IC50 [2]: 161 nM | Kd (recombinant human DLL4 [3]): 310 nM | koff (recombinant human DLL4 [3]): 0.048 s⁻¹ | kon (recombinant human DLL4 [3]): 160000 M⁻¹ s⁻¹ | IC50 (recombinant human DLL4 [4]): 38.4 nM | binding result (human Jagged-1): no binding (tested: 5e-7 M) | % inh [5]: 75% | % inh [6]: 83% | EC50 (recombinant mouse DLL4): 8.7 nM | EC50 (recombinant human DLL4 [7]): 86.5 nM | IC50 [8]: 28.8 nM | binding result [9]: no binding (tested: 1000 nM) | EC50 (read off the curve) [10]: ~20 nM
B1: DLLBII96C03 (VHH)
VHH: EVQLVESGGGLVQPGGSLRLSCAASGFTFGNYDMSWVRQAPGKGPEWVSAINSGGGDTYYADSVKGRFTISRDNAKNTLYLQMNSLKPEDTAVYYCATPRGWGPTGPHEYGYWGQGTQVTVSS
notes: also called 96C3

IC50, DLL4/Notch1 reporter assay [1]: 4660 nM | IC50 [2]: 172 nM | Kd (recombinant human DLL4 [3]): 120 nM | koff (recombinant human DLL4 [3]): 0.13 s⁻¹ | kon (recombinant human DLL4 [3]): 1.2e+06 M⁻¹ s⁻¹ | IC50 (recombinant human DLL4 [4]): 72 nM | binding result (human Jagged-1): no binding (tested: 5e-7 M) | % inh [5]: 74% | % inh [6]: 71% | EC50 (recombinant mouse DLL4): 13.1 nM | EC50 (recombinant human DLL4 [7]): 137 nM | IC50 [8]: 106 nM | binding result [9]: no binding (tested: 1000 nM) | IC50 (recombinant human DLL4 [11]): 24.1 nM | EC50 (read off the curve) [10]: ~20 nM
B2: DLLBII62C11 (VHH)
VHH: EVQLMESGGGLVQPGGSLRLSCVAAGFTFSNYYMSWVRQAPGKGLEWVSVISPDGSNTYYADTVKGRFTISRGNAKNTLFLQMTGLKSEDAAVYYCARGSGSWGVHGQGTQVTVSS
